Results reported in IntAct's records for PubMed 22531782.

B1: E3 ubiquitin-protein ligase RNF8 (Homo sapiens), O76064 (parent)
chain: MGEPGFFVTGDRAGGRSWCLRRVGMSAGWLLLEDGCEVTVGRGFGVTYQLVSKICPLMISRNHCVLKQNPEGQWTIMDNKSLNGVWLNRARLEPLRVYSIHQGDYIQLGVPLENKENAEYEYEVTEEDWETIYPCLSPKNDQMIEKNKELRTKRKFSLDELAGPGAEGPSNLKSKINKVSCESGQPVKSQGKGEVASTPSDNLDPKLTALEPSKTTGAPIYPGFPKVTEVHHEQKASNSSASQRSLQMFKVTMSRILRLKIQMQEKHEAVMNVKKQTQKGNSKKVVQMEQELQDLQSQLCAEQAQQQARVEQLEKTFQEEEQHLQGLEIAQGEKDLKQQLAQALQEHWALMEELNRSKKDFEAIIQAKNKELEQTKEEKEKMQAQKEEVLSHMNDVLENELQCIICSEYFIEAVTLNCAHSFCSYCINEWMKRKIECPICRKDIKSKTYSLVLDNCINKMVNNLSSEVKERRIVLIRERKAKRLF

Variants of: B1
Conditions: with chd4_human CHD4, Q14839
Chain of chd4_human CHD4, Q14839 (Q14839 whole entry): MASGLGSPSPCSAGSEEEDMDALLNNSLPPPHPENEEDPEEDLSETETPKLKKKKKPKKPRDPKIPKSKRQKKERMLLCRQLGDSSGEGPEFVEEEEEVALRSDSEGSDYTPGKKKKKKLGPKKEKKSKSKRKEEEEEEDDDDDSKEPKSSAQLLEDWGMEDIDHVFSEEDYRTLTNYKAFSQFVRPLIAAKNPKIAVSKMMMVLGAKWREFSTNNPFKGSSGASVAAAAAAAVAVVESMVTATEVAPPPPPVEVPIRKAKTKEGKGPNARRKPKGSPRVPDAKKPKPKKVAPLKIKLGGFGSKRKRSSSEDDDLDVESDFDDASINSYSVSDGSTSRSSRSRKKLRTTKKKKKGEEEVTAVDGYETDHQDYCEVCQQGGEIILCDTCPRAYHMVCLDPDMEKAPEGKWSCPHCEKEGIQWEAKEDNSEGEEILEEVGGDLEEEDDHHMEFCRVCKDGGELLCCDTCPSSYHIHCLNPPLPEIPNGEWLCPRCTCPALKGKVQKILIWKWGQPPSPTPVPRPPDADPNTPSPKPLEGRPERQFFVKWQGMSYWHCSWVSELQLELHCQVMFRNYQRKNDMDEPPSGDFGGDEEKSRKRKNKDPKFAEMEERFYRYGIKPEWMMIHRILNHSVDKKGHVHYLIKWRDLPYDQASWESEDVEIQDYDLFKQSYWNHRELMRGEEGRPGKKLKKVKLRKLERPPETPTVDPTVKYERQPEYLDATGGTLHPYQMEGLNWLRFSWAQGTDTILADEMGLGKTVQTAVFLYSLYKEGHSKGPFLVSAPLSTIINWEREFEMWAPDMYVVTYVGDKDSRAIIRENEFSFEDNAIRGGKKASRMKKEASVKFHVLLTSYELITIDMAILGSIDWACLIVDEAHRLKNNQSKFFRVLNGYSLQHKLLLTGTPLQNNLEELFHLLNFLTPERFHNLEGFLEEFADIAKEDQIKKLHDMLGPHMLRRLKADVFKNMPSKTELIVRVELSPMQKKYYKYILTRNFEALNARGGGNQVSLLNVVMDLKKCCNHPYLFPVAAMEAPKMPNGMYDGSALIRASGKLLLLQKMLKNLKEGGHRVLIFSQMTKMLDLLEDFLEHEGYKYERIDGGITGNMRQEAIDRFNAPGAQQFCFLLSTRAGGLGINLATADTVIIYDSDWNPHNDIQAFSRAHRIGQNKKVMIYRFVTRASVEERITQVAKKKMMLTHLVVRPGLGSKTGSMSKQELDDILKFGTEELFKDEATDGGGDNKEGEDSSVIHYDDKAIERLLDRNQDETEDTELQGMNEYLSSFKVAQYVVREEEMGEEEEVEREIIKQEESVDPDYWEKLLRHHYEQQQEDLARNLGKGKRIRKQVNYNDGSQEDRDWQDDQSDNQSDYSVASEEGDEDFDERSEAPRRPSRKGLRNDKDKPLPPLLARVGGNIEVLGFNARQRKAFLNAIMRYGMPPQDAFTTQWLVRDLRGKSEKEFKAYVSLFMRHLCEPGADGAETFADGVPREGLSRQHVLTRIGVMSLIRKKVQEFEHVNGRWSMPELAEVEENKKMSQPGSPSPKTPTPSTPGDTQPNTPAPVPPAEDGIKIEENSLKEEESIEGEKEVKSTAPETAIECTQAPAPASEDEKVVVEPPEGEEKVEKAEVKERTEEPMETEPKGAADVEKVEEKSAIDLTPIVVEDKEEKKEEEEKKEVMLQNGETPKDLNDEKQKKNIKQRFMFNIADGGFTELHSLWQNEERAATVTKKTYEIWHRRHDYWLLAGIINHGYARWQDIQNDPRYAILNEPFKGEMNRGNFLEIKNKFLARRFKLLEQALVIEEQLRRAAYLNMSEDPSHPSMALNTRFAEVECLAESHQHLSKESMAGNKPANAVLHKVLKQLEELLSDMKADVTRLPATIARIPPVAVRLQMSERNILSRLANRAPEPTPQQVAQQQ

Row | Variant | effect of a mutation on the interaction
1 | MGEPGFFVTGDRAGGRSWCLRRVGMSAGWLLLEDGCEVTVGRGFGVTYQLVSKICPLMISRNHCVLKQNPEGQWTIMDNKSLNGVWLNRARLEPLRVYSIHQGDYIQLGVPLENKENAEYEYEVTEEDWETIYPCLSPKNDQMIEKNKELRTKRKFSLDELAGPGAEGPSNLKSKINKVSCESGQPVKSQGKGEVASTPSDNLDPKLTALEPSKTTGAPIYPGFPKVTEVHHEQKASNSSASQRSLQMFKVTMSRILRLKIQMQEKHEAVMNVKKQTQKGNSKKVVQMEQELQDLQSQLCAEQAQQQARVEQLEKTFQEEEQHLQGLEIAQGEKDLKQQLAQALQEHWALMEELNRSKKDFEAIIQAKNKELEQTKEEKEKMQAQKEEVLSHMNDVLENELQSIICSEYFIEAVTLNCAHSFCSYCINEWMKRKIECPICRKDIKSKTYSLVLDNCINKMVNNLSSEVKERRIVLIRERKAKRLF [C403S] | increasing interaction
2 | MGEPGFFVTGDRAGGRSWCLRRVGMSAGWLLLEDGCEVTVGAGFGVTYQLVSKICPLMISRNHCVLKQNPEGQWTIMDNKSLNGVWLNRARLEPLRVYSIHQGDYIQLGVPLENKENAEYEYEVTEEDWETIYPCLSPKNDQMIEKNKELRTKRKFSLDELAGPGAEGPSNLKSKINKVSCESGQPVKSQGKGEVASTPSDNLDPKLTALEPSKTTGAPIYPGFPKVTEVHHEQKASNSSASQRSLQMFKVTMSRILRLKIQMQEKHEAVMNVKKQTQKGNSKKVVQMEQELQDLQSQLCAEQAQQQARVEQLEKTFQEEEQHLQGLEIAQGEKDLKQQLAQALQEHWALMEELNRSKKDFEAIIQAKNKELEQTKEEKEKMQAQKEEVLSHMNDVLENELQCIICSEYFIEAVTLNCAHSFCSYCINEWMKRKIECPICRKDIKSKTYSLVLDNCINKMVNNLSSEVKERRIVLIRERKAKRLF [R42A] | increasing interaction
